Among the data in article PMC10164081 are folding of the Gαolf-RLuc sensor (luminescence) in RIC-8B knockout HEK293T cells and maximal thermal shift (ΔTm) values, retold here.

One experiment concerns the target Gαolf (human) (UniProt P38405).
Experiment [1] addresses purified Ric-8B (peptide-binding thermal shift assay) (mouse) (UniProt Q80XE1). As to the kind of experiment: differential scanning fluorimetry. On the technique in general: Differential scanning fluorimetry follows unfolding on heating by fluorescence.

Where no end group is shown, it is not given here.

Gαolf (human), sequence (P38405 whole entry): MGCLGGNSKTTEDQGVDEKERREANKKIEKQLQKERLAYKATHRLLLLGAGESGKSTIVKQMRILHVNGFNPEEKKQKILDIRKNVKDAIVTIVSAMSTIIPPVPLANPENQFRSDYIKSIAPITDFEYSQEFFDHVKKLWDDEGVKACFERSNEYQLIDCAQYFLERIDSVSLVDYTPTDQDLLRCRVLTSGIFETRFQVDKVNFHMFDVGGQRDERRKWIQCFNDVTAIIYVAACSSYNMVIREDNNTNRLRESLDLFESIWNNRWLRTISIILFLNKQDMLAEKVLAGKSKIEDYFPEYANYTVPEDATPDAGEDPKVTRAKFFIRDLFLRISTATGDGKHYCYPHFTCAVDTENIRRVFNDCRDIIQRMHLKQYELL

B1: Ric-8B F126A (natural protein)
chain: MDEERALYIVRAGEAGAIERVLRDYSDKHRATFKFESADEDKRKKLCEGIFKVLVKEVPTTCQVSCLEVLRILSRDKKILVPVTTKENMQILLRLAKLHESDDSLEKVSEFPVIVESLKCLCNIVANSQMAQQLSLELNLAAKLCNLLRKCKDRKFINDIKCFDLRLLFVLSLLHTDIRSQLRYELQGLPLLTQILESAFSIKWTDEYESAIDHNGPPLSPQETDCAIEALKALFNVTVDSWKVHKESDSHQFRVMAAVLRHCLLIVGPTEDKTEELHSNAVNLLSNVPVSCLDVLICPLTHEETAQEAATLDELPSDKTTEKDTALKNSTMVYNGMNMEAIHVLLNFMEKRIDKGSSYREGLTPVLSLLTECSRAHRNIRKFLKDQVLPPLRDVTNRPEVGSTVRNKLVRLMTHVDLGVKQIAAEFLFVLCKERVDSLLKYTGYGNAAGLLAARGLLAGGRGDNWYSEDEDTDTEEYKNAKP
In turn, B1 returned a folding of the Gαolf-RLuc sensor (luminescence) in RIC-8B knockout HEK293T cells in the experiment with Gαolf (human) of 20 % reduction.

B2: Ric-8B R166A (natural protein)
chain: MDEERALYIVRAGEAGAIERVLRDYSDKHRATFKFESADEDKRKKLCEGIFKVLVKEVPTTCQVSCLEVLRILSRDKKILVPVTTKENMQILLRLAKLHESDDSLEKVSEFPVIVESLKCLCNIVFNSQMAQQLSLELNLAAKLCNLLRKCKDRKFINDIKCFDLALLFVLSLLHTDIRSQLRYELQGLPLLTQILESAFSIKWTDEYESAIDHNGPPLSPQETDCAIEALKALFNVTVDSWKVHKESDSHQFRVMAAVLRHCLLIVGPTEDKTEELHSNAVNLLSNVPVSCLDVLICPLTHEETAQEAATLDELPSDKTTEKDTALKNSTMVYNGMNMEAIHVLLNFMEKRIDKGSSYREGLTPVLSLLTECSRAHRNIRKFLKDQVLPPLRDVTNRPEVGSTVRNKLVRLMTHVDLGVKQIAAEFLFVLCKERVDSLLKYTGYGNAAGLLAARGLLAGGRGDNWYSEDEDTDTEEYKNAKP
Take B2: the folding of the Gαolf-RLuc sensor (luminescence) in RIC-8B knockout HEK293T cells with Gαolf (human) was 59 % decrease.

In the case of NDCRDIIQRMHLRQLMLQ-NH2 [Gαs/Gα13 C-term chimera amidated peptide], the maximal thermal shift (ΔTm) in experiment [1] stood at 4.8 °C.
